Target: Cytochrome bX
Experiment: native MS; 5 µM purified CytbX in 0.2 M ammonium acetate pH 8.0 with lauryldimethylamine oxide at 2x critical micelle concentration; Q-Exactive UHMR; dimer of the protein with itself

- stoichiometry N: 2
Substance: Cytochrome bX

From paper PMC10120048
